In publication PMC4456660 one finds Kd and fold higher affinity than apo APC/C data, which are given here for two substances.

In assay [1] the target is Ube2S, biotinylated on an N-terminal Avi tag (human) (UniProt Q16763). Nature of the assay: SPR. (In general: SPR reads the build-up and loss of mass on a sensor chip optically.)
In assay [2] the target is UbcH10~Ub conjugate (UbcH10(C114K)-Avi conjugated with His6-tagged ubiquitin), biotinylated (human) (UniProt O00762). In words: SPR.

The Kd is the free concentration of one partner at which half of the binding sites on the other are occupied at equilibrium, for simple one-to-one binding. Read a high Kd as lower affinity.

Ube2S, biotinylated on an N-terminal Avi tag (human), sequence (Q16763 whole entry): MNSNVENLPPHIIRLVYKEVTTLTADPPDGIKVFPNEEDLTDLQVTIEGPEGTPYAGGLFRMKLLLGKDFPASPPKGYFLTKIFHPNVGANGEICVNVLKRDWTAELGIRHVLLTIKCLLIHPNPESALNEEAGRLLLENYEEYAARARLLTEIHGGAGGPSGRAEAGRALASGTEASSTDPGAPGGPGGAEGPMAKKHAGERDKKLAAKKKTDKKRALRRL
UbcH10~Ub conjugate (UbcH10(C114K)-Avi conjugated with His6-tagged ubiquitin), biotinylated (human), sequence (O00762 whole entry C114K): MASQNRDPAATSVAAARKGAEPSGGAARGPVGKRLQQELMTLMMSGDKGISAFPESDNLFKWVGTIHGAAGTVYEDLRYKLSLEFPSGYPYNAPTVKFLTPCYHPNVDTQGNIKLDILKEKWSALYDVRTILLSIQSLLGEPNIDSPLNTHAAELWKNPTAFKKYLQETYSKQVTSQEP

Turning to “apo APC/C (from UniProt Q9H1A4;Q9UJX6;P30260;Q9UJX5;Q9UJX4;Q13042;Q9UJX3;Q9UJX2;Q9UM13;Q9NYG5;Q8NHZ8;Q9BS18;P60006;Q96DE5) (complex)”, in assay [1], the Kd was found to be 0.3 µM.
In turn, “APC/C^Cdh1.Hsl1 ternary complex (from UniProt Q9H1A4;Q9UJX6;P30260;Q9UJX5;Q9UJX4;Q13042;Q9UJX3;Q9UJX2;Q9UM13;Q9NYG5;Q8NHZ8;Q9BS18;P60006;Q96DE5;Q9UM11;P34244)” had a fold higher affinity than apo APC/C in assay [2] of 7 fold. In assay [1], this substance gave a Kd of 0.2 µM.
